{
  "source": "paper PMC6200776",
  "key": {"NanoLuc-NRP1 [1]": {"biological_target": "NanoLuc-NRP1 (UniProt O14786)", "sequence (O14786 22-923)": "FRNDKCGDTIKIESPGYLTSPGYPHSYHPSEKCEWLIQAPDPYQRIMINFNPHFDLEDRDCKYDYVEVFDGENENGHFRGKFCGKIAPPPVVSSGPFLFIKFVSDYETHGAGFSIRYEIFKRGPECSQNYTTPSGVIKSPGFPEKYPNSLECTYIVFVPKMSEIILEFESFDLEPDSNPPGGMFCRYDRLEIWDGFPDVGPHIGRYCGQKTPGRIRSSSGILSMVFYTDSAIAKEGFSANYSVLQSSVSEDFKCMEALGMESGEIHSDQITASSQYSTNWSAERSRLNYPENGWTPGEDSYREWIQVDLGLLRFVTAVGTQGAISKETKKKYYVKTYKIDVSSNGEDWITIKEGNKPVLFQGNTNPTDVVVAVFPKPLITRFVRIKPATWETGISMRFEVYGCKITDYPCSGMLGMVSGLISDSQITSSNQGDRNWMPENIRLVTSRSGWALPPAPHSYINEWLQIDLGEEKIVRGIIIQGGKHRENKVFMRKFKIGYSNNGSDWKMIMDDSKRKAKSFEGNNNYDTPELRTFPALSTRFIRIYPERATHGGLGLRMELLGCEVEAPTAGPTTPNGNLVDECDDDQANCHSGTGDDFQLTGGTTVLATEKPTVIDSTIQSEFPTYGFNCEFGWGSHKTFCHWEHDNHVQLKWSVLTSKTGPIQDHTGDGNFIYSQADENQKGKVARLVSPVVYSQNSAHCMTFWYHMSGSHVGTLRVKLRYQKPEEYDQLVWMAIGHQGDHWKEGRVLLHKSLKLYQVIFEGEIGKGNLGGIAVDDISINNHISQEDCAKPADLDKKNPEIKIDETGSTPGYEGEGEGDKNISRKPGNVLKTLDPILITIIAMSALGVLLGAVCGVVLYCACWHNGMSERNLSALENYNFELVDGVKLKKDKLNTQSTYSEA", "assay": "FRET or BRET; NanoBRET full displacement: live HEK293T cells with NanoLuc receptor; increasing unlabelled VEGF (R&D Systems) added together with five fixed concentrations of fluorescent VEGF; 60 min, 37°C, HBSS/0.1% BSA"}, "VEGF121a-TMR": {"biological_target": "VEGF121a-TMR", "assay": "fluorescence SDS-PAGE with and without DTT; purified VEGF-TMR isoforms in the presence or absence of 100 mM DTT; dimer in non-reducing conditions"}, "NanoLuc-VEGFR2 [2]": {"biological_target": "NanoLuc-VEGFR2 (UniProt P35968)", "sequence (P35968 20-1356)": "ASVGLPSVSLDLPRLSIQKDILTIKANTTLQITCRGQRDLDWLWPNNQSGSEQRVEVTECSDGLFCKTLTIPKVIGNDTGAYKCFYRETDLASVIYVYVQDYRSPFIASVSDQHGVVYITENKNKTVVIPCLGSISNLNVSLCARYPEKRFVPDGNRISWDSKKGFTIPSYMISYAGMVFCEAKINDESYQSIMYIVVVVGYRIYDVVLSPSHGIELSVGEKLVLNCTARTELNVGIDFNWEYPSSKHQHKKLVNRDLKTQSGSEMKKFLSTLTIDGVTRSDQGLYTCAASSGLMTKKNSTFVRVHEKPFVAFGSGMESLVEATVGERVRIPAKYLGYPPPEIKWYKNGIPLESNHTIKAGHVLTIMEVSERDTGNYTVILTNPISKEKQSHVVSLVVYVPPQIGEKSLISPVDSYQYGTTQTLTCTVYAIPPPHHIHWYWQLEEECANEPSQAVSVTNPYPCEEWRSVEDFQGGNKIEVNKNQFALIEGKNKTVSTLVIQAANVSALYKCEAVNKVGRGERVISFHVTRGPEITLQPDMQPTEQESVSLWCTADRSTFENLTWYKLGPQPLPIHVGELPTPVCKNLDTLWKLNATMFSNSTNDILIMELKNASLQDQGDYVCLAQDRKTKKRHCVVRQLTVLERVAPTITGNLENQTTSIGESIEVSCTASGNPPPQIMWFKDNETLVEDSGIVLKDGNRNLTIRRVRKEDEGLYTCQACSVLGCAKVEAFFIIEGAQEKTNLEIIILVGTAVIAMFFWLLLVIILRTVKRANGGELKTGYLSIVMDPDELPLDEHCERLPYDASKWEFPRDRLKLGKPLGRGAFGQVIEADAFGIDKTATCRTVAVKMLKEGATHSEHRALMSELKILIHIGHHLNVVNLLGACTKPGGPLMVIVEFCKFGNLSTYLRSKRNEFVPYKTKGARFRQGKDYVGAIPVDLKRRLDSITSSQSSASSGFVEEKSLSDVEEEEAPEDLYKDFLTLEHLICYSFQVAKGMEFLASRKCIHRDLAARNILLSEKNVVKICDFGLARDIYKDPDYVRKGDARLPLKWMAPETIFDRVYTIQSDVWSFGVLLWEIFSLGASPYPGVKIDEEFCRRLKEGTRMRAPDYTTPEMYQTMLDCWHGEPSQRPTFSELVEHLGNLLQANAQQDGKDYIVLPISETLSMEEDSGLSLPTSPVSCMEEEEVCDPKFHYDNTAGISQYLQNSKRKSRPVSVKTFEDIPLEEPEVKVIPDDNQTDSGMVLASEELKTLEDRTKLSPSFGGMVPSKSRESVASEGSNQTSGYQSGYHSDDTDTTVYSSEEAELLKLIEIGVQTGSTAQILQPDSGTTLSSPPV", "assay": "FRET or BRET; NanoBRET kinetics: live HEK293T cells with NanoLuc receptor, furimazine 5 min before 1-20 nM fluorescent VEGF, read every 30 s at 37°C; global fit of five concentrations; KD as koff/kon"}, "NanoLuc-VEGFR2 [3]": {"biological_target": "NanoLuc-VEGFR2 (UniProt P35968)", "assay": "FRET or BRET; NanoBRET saturation: live HEK293T cells stably expressing the N-terminal NanoLuc receptor; increasing fluorescent VEGF with or without 100 nM unlabelled VEGF; 60 min, 37°C, HBSS/0.1% BSA"}, "NanoLuc-NRP1 [4]": {"biological_target": "NanoLuc-NRP1 (UniProt O14786)", "assay": "FRET or BRET; NanoBRET kinetics: live HEK293T cells with NanoLuc receptor, furimazine 5 min before 1-20 nM fluorescent VEGF, read every 30 s at 37°C; global fit of five concentrations; KD as koff/kon"}, "NanoLuc-NRP1 [5]": {"biological_target": "NanoLuc-NRP1 (UniProt O14786)", "assay": "FRET or BRET; NanoBRET saturation: live HEK293T cells stably expressing the N-terminal NanoLuc receptor; increasing fluorescent VEGF with or without 100 nM unlabelled VEGF; 60 min, 37°C, HBSS/0.1% BSA"}, "NanoLuc-VEGFR2 [6]": {"biological_target": "NanoLuc-VEGFR2 (UniProt P35968)"}, "VEGF165b-TMR": {"biological_target": "VEGF165b-TMR", "assay": "fluorescence SDS-PAGE with and without DTT; purified VEGF-TMR isoforms in the presence or absence of 100 mM DTT; dimer in non-reducing conditions"}},
  "data": [
    {"substance": "VEGF165a (ligand)", "values": [
      {"measurement": "Ki", "setting": "NanoLuc-NRP1 [1]", "result": 0.1, "unit": "nM"},
      {"measurement": "pKi", "setting": "NanoLuc-NRP1 [1]", "result": 9.54}
    ]},
    {"substance": "VEGF121a-TMR (ligand)", "values": [
      {"measurement": "stoichiometry N", "setting": "VEGF121a-TMR", "result": 2},
      {"measurement": "Kd", "setting": "NanoLuc-VEGFR2 [2]", "result": 5.75, "unit": "nM"},
      {"measurement": "koff", "setting": "NanoLuc-VEGFR2 [2]", "result": 0.000833, "unit": "s⁻¹"},
      {"measurement": "kon", "setting": "NanoLuc-VEGFR2 [2]", "result": 142000, "unit": "M⁻¹ s⁻¹"},
      {"measurement": "Kd", "setting": "NanoLuc-VEGFR2 [3]", "result": 5.54, "unit": "nM"}
    ]},
    {"substance": "VEGF165a-TMR (ligand)", "values": [
      {"measurement": "Kd", "setting": "NanoLuc-NRP1 [4]", "result": 4.95, "unit": "nM"},
      {"measurement": "koff", "setting": "NanoLuc-NRP1 [4]", "result": 0.00433, "unit": "s⁻¹"},
      {"measurement": "kon", "setting": "NanoLuc-NRP1 [4]", "result": "1.18e+06", "unit": "M⁻¹ s⁻¹"},
      {"measurement": "Kd", "setting": "NanoLuc-VEGFR2 [2]", "result": 6.64, "unit": "nM"},
      {"measurement": "koff", "setting": "NanoLuc-VEGFR2 [2]", "result": 0.001, "unit": "s⁻¹"},
      {"measurement": "kon", "setting": "NanoLuc-VEGFR2 [2]", "result": 257000, "unit": "M⁻¹ s⁻¹"},
      {"measurement": "Kd", "setting": "NanoLuc-NRP1 [5]", "result": 4.41, "unit": "nM"},
      {"measurement": "Kd", "setting": "NanoLuc-VEGFR2 [3]", "result": 2.03, "unit": "nM"},
      {"measurement": "Kd", "setting": "NanoLuc-NRP1 [1]", "result": 1.11, "unit": "nM"}
    ]},
    {"substance": "VEGF165b-TMR (ligand)", "values": [
      {"measurement": "pEC50 of the NFAT reporter gene response, as told again in the discussion with another number", "setting": "NanoLuc-VEGFR2 [6]", "result": 8.28},
      {"measurement": "stoichiometry N", "setting": "VEGF165b-TMR", "result": 2},
      {"measurement": "Kd", "setting": "NanoLuc-VEGFR2 [2]", "result": 11.3, "unit": "nM"},
      {"measurement": "koff", "setting": "NanoLuc-VEGFR2 [2]", "result": 0.001, "unit": "s⁻¹"},
      {"measurement": "kon", "setting": "NanoLuc-VEGFR2 [2]", "result": 122000, "unit": "M⁻¹ s⁻¹"},
      {"measurement": "Kd", "setting": "NanoLuc-VEGFR2 [3]", "result": 9.53, "unit": "nM"}
    ]}
  ]
}
